In patent US20230212300A1 (REMD BIOTHERAPEUTICS, published 2023):

T1: human endothelin A receptor (ETAR), tagged, stably expressed on recombinant CHO cells (human, UniProt P25101 21-427)
T1 sequence: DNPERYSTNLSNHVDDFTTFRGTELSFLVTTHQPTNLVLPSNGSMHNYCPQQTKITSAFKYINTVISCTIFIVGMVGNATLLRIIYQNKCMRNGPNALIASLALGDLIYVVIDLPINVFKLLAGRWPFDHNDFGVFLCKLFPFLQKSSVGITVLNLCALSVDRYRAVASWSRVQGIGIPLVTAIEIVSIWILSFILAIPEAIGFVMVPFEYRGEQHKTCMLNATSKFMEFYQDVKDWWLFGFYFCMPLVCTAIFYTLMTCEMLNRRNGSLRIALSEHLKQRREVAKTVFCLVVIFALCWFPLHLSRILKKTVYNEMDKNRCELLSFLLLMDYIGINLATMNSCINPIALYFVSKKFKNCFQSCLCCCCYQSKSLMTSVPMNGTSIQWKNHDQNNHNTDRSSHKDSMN


Biological target: T1, human endothelin A receptor (ETAR), …
Assay: cell-based or functional assay

HuET AR Binding IC50 (nM); IP1 assay (IP-one-Gq kit, HTRF 665/620) with 25.0 nM ET-1 [nM]	Binder
0.0607	murine mAb 336D8G9 (antibody, V domains shown) VH: EVQLQQSGAELVRPGASVKLSCPASGFTIKDYYIHWVKQRPEQGLEWIGRIDPEDGDTEYAPKFQGKATMTADTSSNTAYLHLSSLTSEDTAVYYCTSNWYSNSYWGQGTTLTVSS VL: DVVMTQTPLSLPVSLGDQASISCRSSQSLVHSNGNTYLHWYLQKPGQSPKVLIYKVSNRFSGVPDRFSGSGSGTDFTLKISRVEAEDLGVYFCSQSTHVPYTFGGGTKLEIK
0.0891	murine mAb 312A10E5 (antibody, V domains shown) VH: QIQLVQSGPDLKKPGETVKISCKASGYTFTNYGMSWVKQAPGKGLKWMGWINTYSGESTYADDFKGRFAFSLETSASTAYLQINNLKNEDTATYFCARSLNRDTWFTYWGQGTLVTVSA VL: QAVVTQESALSTSPGETVTLTCRSITGAVTTSNYANWVQEKPDHLFTGLIGGTNNRAPGVPARFSGSLIGDKAALTITGAQTEDEAIYFCALWYSNHWVFGGGTKLTVL
